A protein production outcome set (Wang et al. 2014)

Assay: label from the status in PepcDB records

| Sequence | protein production |
| --- | --- |
| MKKKMITTIIAMLVIVVMLLPTKLGPVIDKYNPFYKTKEYYTVVNTIGQHVGDEWYEYEFIAFDERGKEQKIKKTVKHMLKRDEMLKVYAKGRYGESIEEIEAVNIPINAKSKLLSMRLEHHHHHH | not failed |
| MKKKNNNKLHYLDSKGKLYTSGLRSDTKEKYGEIPSSNKNHNLIEKYNELQSLLSKEEEKYDFVKNELGDLQKQKDLLKWHLCNNIKKLSMKRSDYKFKTETKSKLESKLKSLKDMNKIHKFEHDTLEELVHKMEQELETKMYIKNDIENIFNECINKKDEYLKDITQERISVFKERKKRQNQLQKLLLIMKQENNKNYNINYLKKYESNLMNEINSYKNYKDFETKIAMDLIDDHSLNDLYVT | failed |
| MKKLAISIGDINSIGLEILVRSHEELSKICTPFYFIHESLLNKALKLLNLKLFNAKIVAFKDDKDYEFNFIKKENSLEIYSFCLPLGFKVDENFEIQAGEIDAKSGLYGFLSFKAASYFVYEKHAHALLTLPIHKKAWEDAGLKYKGHTDALRDFFKKNAIMMLGCKELFVGLFSEHIPLAKVSKKITFKNLSIFLKDFYKETHFKKMGLLGFNPHAGDYGVIGGEEEKIMEKAIAFVNAFLHSKKDEKFFKKALKDENLQKELLLNFKGKGVYLPYPLVADTAFTKTGLKNCNRLVAMYHDLALAPLKALYFDKSINVSLNLPIIRVSVDHGTAFDKAYKNAKINTKSYFEAAKFAINLHSKA | not failed |
| MKKLGFVLFMSMFAFVSVVPAAEAKVIDHDKVQGFSEVTPVTVSQKAAKRFQPYLKVASGCVPFPAVDAQGNTSGGLEPTGAPEGHCSKSVGQVYSRSAWYNGVWAIMYAWYFPKDSPLPLKAFGHRHDWEGIVVWIDNPANQNPKVLSIAYSQHGKFQKTAPNNNIMEGDHPKIRYDAPQPPINHSLYVDSAKGGTQPLIGWEDLTPAARNALNTTDFGSANVPFNDHNFTNNLGKAWFR | failed |
| MKKLILYTLILLLMSCRSTQEVDTSVYMDAKQPVDKRVEALLAQMTLEEKVGQMDMVTVWDKEAIFKNGYYDFGAWLADLEPEECNQLQKLSEQTRLKIPYLIGMDAAHGYAMLTGRTIFPTSISMAATFNRELIYRTTSKAGEEIRSSGIHWAFAPCIDIVQDARWGRTGETYGEDPFLTSELVKEAIRGYQGNENPFKKVAVSVKHLVGGGASVGGCNHASAELSERALRSYFLPPFKAAIEAGCMTIMPGHNDIAGVPVHASKWLLTDIIKQEYGFKGFFISDMGDVENLATSLHQIAENQKEAVCKSVNAGLDMHMYSADSARFVSPLVELVREKKVSSRRIDDAVRRILKIKFELGLFEKRYVSPEEDSYGSKENKALALEAAREAIVLLKNDRQILPLDRTKYKKILVTGPNADNQSILGDWSIFQPDDHVTTILEGIQAAASPEQSILYSNSGRIKAKKSDLSVNTTDPAIQKKLITEGGGISDYSIDDAVRKARQSDLAIVAIGGYGIRSEWGLRTYGESADRPSIDFYGRQLELVQAIHATGTPVVIVIVNGKPLNNEWITKNIPTIVDVWEPGMYGGQALAEILFGEVNPSGKLPITIPKHAGQIPMYYYQRPSRYWTGYGLGSSREDEKPAFCFGHGLSYTSYEYSGLKIDSVIPQTQDIEFTFTVKNTGNMAGKETALVFIRDCVSSVVTPVACLKGFEKVSLNPGESKDIRIVIPYSDLGLWNEDMKYVVESGKFNLMIGRSVEDIRIKKDFFIK | failed |
| MKKLINRVDDVLSEQLQGFAKAHPEINLHPSSFYVTRHDAPVKGKVALLSGGGSGHEPMHAGFVGKGMLDGACPGEIFTSPTPDKMYDCAKAIDSGEGVLMIVKNYTGDVLNFETATELLHDEGVKIATVLVDDDVAVKDSLYTAGRRGVANTVLMEKLLGAAAERGDTLDDLVKLGHQINNNGFSIGIALQACTVPAAGKPSFTLPENEMEFGVGIHGEPGIDRRPFTSLNDTVDAMFNTLIENGHYQRTIRSWDRVNGDWIEETQEKQPLKSGDRVIALVNNLGATPLSELYGVYHRLALCCENFGLNIERSLIGSYCTSLDMSGISITLLKVDDALLTLWDAPVATPAMTK | failed |
| MKKLLLSLTLTVLLGLLGRPAIAANYEIKLVDEGVFAAIALPEGKAASNALIIITPHQVILAGAHFVPEGIKELIADIAEITPLPLRSVILTHHHKGFNYVDFDFPANVEIITSWQTWQALKAETRPLRNPVTFFEKGLTLLRSNTTIVLSSADFGHTEGDVFLFLPNEGILFASDLFYNDVVGYMGEGHMRDWVITLETLEAVGAQYVVPGLGQVTDRSGLRRFRLFFKDFLTEVLRHMEAGKTLAETKKLFRLPAHEGMPGYKAFLDVNLDRAYQDLRDQ | failed |
| MKKNIRLLTHNEIPRVWEIDRTELIERLYVLQQGQLVLSEQRFDMKGWPEGEAEHYTPVLLESAERGAPFWGVFEDDKLVAATSVDPQWRGQDNTLLQLSFLHISHQQRGQGLARILFDYCVEYAKQKGASGLYISSTPSENSVNFYQHMGCRLIDVPDTELYEREPEDIHLVLNFNKED | failed |
| MKKNIVVLVLIVLIIFSAGSGCISSDVISSANTSSDEADGNTGENSALGKSADSEPDQANITPYGKSSPYLYWEYELGDVTPENTLGGRSSVQDCVSFAPDGKSVATGTGSNLTVVSVSEKNVLWTKILSGNISDLTFSEDGKYLLVGEKSADGCIYSLDANTGEEIRTYRTSDDLGTDSNPKYQPCIYKITAAEDSVYVAAGRYWKDSKYGLASRVYGFSPDGTFSWKLPATENYARSVNWIDASQDGKNVVYSIGDWTNSLESDAVVYSVDAGGKLRWKYEIPALRPYFVSAAIWHGLDVSEDGSLVTAYTGDGRTYLFYDAEMKDPGDGKSEWYSEEYQSNVTTPEELEGSAIYTYGENAKIAADNEILYLTGATLPAYYPDNIPMAHPLENSLISCDAEKGETSWTYNLGGRCAGIFFSQDMRYFVLPVGKDTSTGDTRVHGVYVFDSRKSGNGNSKLLWTFRTEGVVENAAISSNCTVAAVEVPLQLENGDVTGKHRLIIVR | failed |
| MKKNKIGGSQSMFNKVWFRTGIFFIMLFILIKLFMEVHEVFAPIATIIGSVFLPFLISGFLFYICLPFQNILEKWGFPRWASITTIFIGLIVIIAIVVSFIAPIIISNINNLIKQTPSLQKEAEQLINFSLRQMDKLPDDVTHRINKAVKSMGDGATSILSNSVSYITSFISTVFLLIMVPFFLIYMLKDHEKFIPAIGKFFKGERKVFVVDLLKDLNFTLKSYIQGQVTVSIILGIILYIGYTIIGLPYTPLLVLFAGVANLIPFLGPWLSFAPAAILGIIDGPSTFIWVCVVTLIAQQLEGNVITPNVMGKSLSIHPLTIIVVILAAGDLGGFTLILVAVPLYAVIKTLVSNIFKYRQRIVDKANSNVKD | failed |
| MKKNKLTTLALILPITILTPIVIASCTNKTKVKKSSSLDKIASNLKLEYFNNKANTKASSVQKDEIKKPLNLPNDVVFSVKDVFVSHKDQSVLIVKYTLKKGNEIQEYTYEIKGFKSVYEKDKIVNDLSQANEDFKKIVNNIRLKDTFDFKLAAFPNQNYDQLLPSQIYKNYYQGIEIQQHKYQNELDIKIINFLYPDGDFGSANKNGTLKLSLMLTDKKNNQVYYKLLEVSGFKSNPYGVDENGTIPGIGTERLKPKNQDDYFSKTQLQRYEIDNEGYLQILKRQNNDKNWKELRPDLNATVSDIKHFDEKAKNVGQDSYESAAYKGFTLPVYESDGKISGLALAGKDTPKGPSWVDAIGRNQWQIGGLPRTLPNEKYRQEAMQTFSLGILNNDSHKNNTYNKTAGTTWILDYQKTSDNKYPTKWYFATNLHVADAINENTLSINLMRLMDSAQIKTTFRLSNLDENIYNFGFRSKEHGKNLLNHGLKKIFDGRDFLKTKPAEYLINSQKEKYKDVGNFTDFAVFELDFEKLELVNVWKNFLGENNGLVTKYNNYNPQELAKVITSNYANNKNNQIKFLSKSYLSDYSKIDVPLKYRQEDAKTWFKKYDELFALGWPNSTEDFFFKAYVDDDQLKYRTRDNFSLWTNSDYRFFNNLTQQEGGQPAFPPERTERGNYLSYAIGFRSFIQKPGIVDAFIAVPQIGNNLYTSSDNKKYINMGLEYLPKHFAPAGGASGTSVRNQKNELVAIYHAKYDSSKTGLAAAFRSEGYDYQGLYGNYNLPQYDLIYGGGKDQTEKKSYREAMKDIYQNNNIKTALFPDGFDKIPDEFKFNNN | failed |
| MKKNLFYLFALICSMSLFTACSDDDEAPGNSGVVGEVVGDYKGLMDVYYEPNVEIAKGMQQKITIKKSSDTSIGLELKNFVITVGGAPITIGDLAIDNCPLKVEGDKYSFTGNADLDLVVGKCAVSVEGAINGEDIELIIKVNVNNDLMKVRVEYKGKKMTGNESSEALIKEFKFDSDIIAEQPVINEDKTITFKVAETATDDDLKALKPIITISENATVTPESGVTQDFSGNKVVIYKVTSEDGTTVTEYKVSARKSSDALITSFVFENNPIVAEQPVINEDNTITFKVKASATADDLKALVPTITYSHKATIAPESGVAQDFSDNKKVIYTVTSEDGTVIKEYQVFISGTEDVYDFEKWLPGVEGQEPENTFYEAEGWASSNTGAHFLKGFNLTDSYVIMQTDDSHSGTAAAKIQSIDTKGQDLGIAKAPKVTTGSLFLGKFKTDIFNTLNSTKFGIPCKEKPISLRGWYKYTPGDVYYIVNTKPYKEHCHEAVVDETKVDEFMISVVLYETTAYDEIGWSDCLTGTDEEEKNIYTSSRIAAIGQLIGGAQTDWKKFELPLEWKKQYDTNKKYRMTIACSSSKDGDKFWGAPGSTLIVDDFELIKE | failed |
| MKKPFFGFMFIALFSASLFCNPADLYQKGAEYQANEDWYGAIEMYQSALKENPSYNLVYQGLAECFYALDEYDQALSFVESARKYKKDDPDLQNLHGFILVGLGKIDAAKTLFNGVLKKYPNNPEARFGLAEIEVSQGKLYLASEMYKQNLQRQGENRKDLLSLALVSYEAGNVKQAEDYINRALKYHGDNPQVHYFAAYLHSLDGKLEEAEGRIYSALKLKEDYDEAYALLASVLYAQKRYEEVIKISDMRISKKRDRADAWYLKTLSLRQLARYGEAINAAKVGLSLDADDEIMRCLLEELAIENLNFEDSFRMELSKYHAQKALGFFRRNMTEQALYEYRRTLKIYPYDVESREAYAGILLRLGYPERYLEQMLFIQSIVKSNTKVNDAVEAYEKHLLSSIQSKWRIDPLYLDKAHISIGLFYTMESSNVLHPEAERITQILTSDIFSYNPRIKITSYSDKPVTYREASKKSRTANEDYFGIIRLKENRRDIQIILELYVSRTGSPAKTFTVYRSGNDRFSNGIRRLSSMLNEAMPIVGKLINRYQNEAVIDIGKHDSDFKDLKIAVIRKDRLVIEKEGLGMVFDPSDLLGYFEPSKSEENLSEGILKRNGYYDRMNAGDSIILVSENAKEKAAEDYTNSYQKNSLLLLLLRRIR | failed |
| MKKQLIKSSTFRTLEVIIITVISLVLTPYLIHHLGDAHYGLWILILSALGWFNFIDLGFAYAVQRNIVLALENKDNHRINIVFSVAVALFSVLGFIAAFCVLVLAFFPELLGINEKEQSIATIAFSILAIKVFLDFIMNCFHGFFTAYLRMDIDANLGTLNMVVKSILVFYLIIDMNIYGAVFATIAADILTHSLKMHFARKLHPEFKFVLHLVKFSEVRQLFAFSKHLILMGMAKSVNRRVDPIIISHLLGLKFVAIYNVINSLMNQVESLVGAIVGVFQPVLTKMVARNTGLDGTFKLIISINFFTVILLYMPLAILAEDFITLWIGLDYAQAGQLAPILGFAYICRTVSRPISSLLLAKAQHQLLSVVNLLGALLNIGLSLVLGSQWGLLGIAIATACSFFVSDVILHLVLLNKYTELPVLKPILEFIKLVVLYILLVVLGISMMQLFEPLNWGQLIIAAIACVCIALLIAWPMLLDKEVKQKLLGMLIKTGKAHD | failed |
| MKKQYWWIIVTYILMQLSGVVGLPLLLKTGLYDNRGFTIEEKGQIITGHWAIISFFIALCIVLWLLRTDIRDRHLDPMRSSVPATIGWIFIGFFLAIISQSIAGMIEMYVFGVPRGSENTDRLLDIARTIPWFLIVVSIIGPILEEIVFRKILFGTLYKKFNFFIAAIISSLVFATIHFDFTHLLVYTAMGLVFAFLYVKTKRIIVPIAAHVAMNTLVAIGQIFMSNEQIQEMIKEAEKMQGFIGGFFV | failed |
| MKKRLFVLSLILLVALDQLSKFWIVSHIALGEVKPFIPGIVSLTYLQNNGAAFSILQDQQWFFVVITVLVIGYAIYYLATHPHLNIWKQLALLLIISGGIGNFIDRLRLAYVIDMIHLDFVDFAIFNVADSYLTVGVILLLICLWKEEDYGN | failed |
